No end group written: not given here.
Columns and labels:
Experiment in all cases: ELISA, biotinylated peptide on streptavidin plate, O.D. 405 nm [upper chart, Figure 1]
peptide 31 = target: T1, peptide 31 (also: biotinylated, site not given here)
T1 construct: also called 31 on the axis Peptide number; first peptide library
T1 peptide: IIGLMVGGV
Excerpt: (§1) One library comprised a total of 33 biotinylated peptides covering the complete amino acid (aa) sequence of Aβ1-42 (produced by Mimotopes and purchased from ANAWA Trading SA), the second library contains biotinylated peptides using peptide 12 (aa12-20 of Aβ) from the first peptide library and substituting each aa in the sequence by an alanine (see table 8 below), and the third library contains biotinylated peptides 13, 14, or 15 (aa 13-21, 14-22 or 15-23 of Aβ) and substituting in each case the last amino acids to an alanine or to a glycine for aa 21 which is already an alanine (see table 9 below). A biotinylated complete Aβ1-42 peptide was used as positive control (Bachem). Epitope mapping was done according to the manufacturer's (Mimotopes) instructions. Briefly, Streptavidin coated plates (NUNC) were blocked with 0.1% BSA in PBS overnight at 4° C. After washing with PBS-0.05% Tween 20, plates were coated for 1 hour at RT with the different peptides from the library, diluted in 0.1% BSA, 0.1% Sodium Azide in PBS to a final concentration of 10 μM. […] Plates were washed again and incubated with alkaline phosphatase conjugated goat anti human IgG for 1 h at RT.

peptide 21 = target: T2, peptide 21 (also: biotinylated, site not given here)
T2 construct: also called 21 on the axis Peptide number; first peptide library
T2 peptide: AEDVGSNKG
Excerpt: as §1

peptide 22 = target: T3, peptide 22 (also: biotinylated, site not given here)
T3 construct: also called 22 on the axis Peptide number; first peptide library
T3 peptide: EDVGSNKGA
Excerpt: as §1

peptide 20 = target: T4, peptide 20 (also: biotinylated, site not given here)
T4 construct: also called 20 on the axis Peptide number; first peptide library
T4 peptide: FAEDVGSNK
Excerpt: as §1

peptide 24 = target: T5, peptide 24 (also: biotinylated, site not given here)
T5 construct: also called 24 on the axis Peptide number; first peptide library
T5 peptide: VGSNKGAII
Excerpt: as §1

peptide 30 = target: T6, peptide 30 (also: biotinylated, site not given here)
T6 construct: also called 30 on the axis Peptide number; first peptide library
T6 peptide: AIIGLMVGG
Excerpt: as §1

peptide 8 = target: T7, peptide 8 (also: biotinylated, site not given here)
T7 construct: also called 8 on the axis Peptide number; first peptide library
T7 peptide: SGYEVHHQK
Excerpt: as §1

peptide 5 = target: T8, peptide 5 (also: biotinylated, site not given here)
T8 construct: also called 5 on the axis Peptide number; first peptide library
T8 peptide: RHDSGYEVH
Excerpt: as §1

peptide 11 = target: T9, peptide 11 (also: biotinylated, site not given here)
T9 construct: also called 11 on the axis Peptide number; first peptide library
T9 peptide: EVHHQKLVF
Excerpt: as §1

peptide 4 = target: T10, peptide 4 (also: biotinylated, site not given here)
T10 construct: also called 4 on the axis Peptide number; first peptide library
T10 peptide: FRHDSGYEV
Excerpt: as §1

peptide 6 = target: T11, peptide 6 (also: biotinylated, site not given here)
T11 construct: also called 6 on the axis Peptide number; first peptide library
T11 peptide: HDSGYEVHH
Excerpt: as §1

peptide 32 = target: T12, peptide 32 (also: biotinylated, site not given here)
T12 construct: also called 32 on the axis Peptide number; first peptide library
T12 peptide: IGLMVGGVV
Excerpt: as §1

peptide 23 = target: T13, peptide 23 (also: biotinylated, site not given here)
T13 construct: also called 23 on the axis Peptide number; first peptide library
T13 peptide: DVGSNKGAI
Excerpt: as §1

peptide 2 = target: T14, peptide 2 (also: biotinylated, site not given here)
T14 construct: also called 2 on the axis Peptide number; first peptide library
T14 peptide: AEFRHDSGY
Excerpt: as §1

peptide 29 = target: T15, peptide 29 (also: biotinylated, site not given here)
T15 construct: also called 29 on the axis Peptide number; first peptide library
T15 peptide: GAIIGLMVG
Excerpt: as §1

peptide 10 = target: T16, peptide 10 (also: biotinylated, site not given here)
T16 construct: also called 10 on the axis Peptide number; first peptide library
T16 peptide: YEVHHQKLV
Excerpt: as §1

peptide 1 = target: T17, peptide 1 (also: biotinylated, site not given here)
T17 construct: also called 1 on the axis Peptide number; first peptide library
T17 peptide: DAEFRHDSG
Excerpt: as §1

peptide 18 = target: T18, peptide 18 (also: biotinylated, site not given here)
T18 construct: also called 18 on the axis Peptide number; first peptide library
T18 peptide: VFFAEDVGS
Excerpt: as §1

peptide 17 = target: T19, peptide 17 (also: biotinylated, site not given here)
T19 construct: also called 17 on the axis Peptide number; first peptide library
T19 peptide: LVFFAEDVG
Excerpt: as §1

peptide 7 = target: T20, peptide 7 (also: biotinylated, site not given here)
T20 construct: also called 7 on the axis Peptide number; first peptide library
T20 peptide: DSGYEVHHQ
Excerpt: as §1

B1: humanized anti-human amyloid beta monoclonal antibody hC2 (antibody, human IgG4 S228P, kappa, V domains shown)
VH: EVQLVESGGGLVQPGGSLRLSCAASGFTFSSYGMSWVRQAPGKGLELVASINSNGGSTYYPDSVKGRFTISRDNAKNSLYLQMNSLRAEDTAVYYCASGDYWGQGTTVTVSS
VL: DIVMTQSPLSLPVTPGEPASISCRSSQSLVYSNGDTYLHWYLQKPGQSPQLLIYKVSNRFSGVPDRFSGSGSGTDFTLKISRVEAEDVGVYYCSQSTHVPWTFGQGTKVEIKR
notes: also called humanized antibody C2; humanized C2
binding result (peptide 31): no binding (tested: 200 ng/ml (single concentration)) | binding result (peptide 21): no binding (tested: 200 ng/ml (single concentration)) | binding result (peptide 22): no binding (tested: 200 ng/ml (single concentration)) | binding result (peptide 20): no binding (tested: 200 ng/ml (single concentration)) | binding result (peptide 24): no binding (tested: 200 ng/ml (single concentration)) | binding result (peptide 30): no binding (tested: 200 ng/ml (single concentration)) | binding result (peptide 8): no binding (tested: 200 ng/ml (single concentration)) | binding result (peptide 5): no binding (tested: 200 ng/ml (single concentration)) | binding result (peptide 11): no binding (tested: 200 ng/ml (single concentration)) | binding result (peptide 4): no binding (tested: 200 ng/ml (single concentration)) | binding result (peptide 6): no binding (tested: 200 ng/ml (single concentration)) | binding result (peptide 32): no binding (tested: 200 ng/ml (single concentration)) | binding result (peptide 23): no binding (tested: 200 ng/ml (single concentration)) | binding result (peptide 2): no binding (tested: 200 ng/ml (single concentration)) | binding result (peptide 29): no binding (tested: 200 ng/ml (single concentration)) | binding result (peptide 10): no binding (tested: 200 ng/ml (single concentration)) | binding result (peptide 1): no binding (tested: 200 ng/ml (single concentration)) | binding result (peptide 18): no binding (tested: 200 ng/ml (single concentration)) | binding result (peptide 17): no binding (tested: 200 ng/ml (single concentration)) | binding result (peptide 7): no binding (tested: 200 ng/ml (single concentration))

— US20100150906A1 (AC IMMUNE S A, published 2010)
